Laboratory results from patent US8580549B2, “Esterases for separating plastics” (Henkel KGaA, priority 2005, dated 2013).

Legend:
Format in all cases: biochemical
[1] = Esterase activity by hydrolysis of bis-(p-methylbenzoic acid) ester of ethylene glycol (titration); conditions: titrimetric, 30° C., tris/HCl pH 9.0; for Specific Activity / vMax: mean of three measurements
Experimental: 2.4.2 Determination of the Enzymatic Activity
The cleavage of the bis-(p-methylbenzoic acid) ester of ethylene glycol catalyzed by the inventive enzymes affords 2 equivalents of 4-methylbenzoic acid and ethylene glycol (see FIG. 2).
For the preparation of the enzyme assay, the desired amount of substrate was mixed with 0.5 g Triton X100 and dissolved with heating in 50 mL ethanol (99%, denatured). Once all the substrate was dissolved, the solution was added to 50 mL buffer (2 mM tris/HCl buffer; pH 9.0) with intense stirring by Ultra-Turrax. This solution was then stirred at room temperature for at least 12 hours in order to remove a large part of the added ethanol. The thus-prepared substrate solution was immediately titrated. The reaction buffer was pre-incubated at 30° C. for 10 minutes.
Different final concentrations (0.67 mM to 50 mM) were used in a total reaction volume of 2 mL including enzyme. After addition of the enzyme, the NaOH consumption (concentration determination by triple titration with oxalic acid) with the titration apparatus 702 SAT (METROHM Ltd., Switzerland)) at a reaction temperature of 30° C. was plotted. One unit is defined as the enzyme activity that releases 1 μmol acid per minute.
In this and the subsequent examples, the following abbreviations are used for the tested esterases: enzyme according to Seq ID No. 12 (pNB-Est13), enzyme according to Seq ID No. 2 (pNB-Est19), enzyme according to Seq ID No. 1 (pNB-Est17). The data obtained for the cited esterases in Table 2 were determined by titrimetric measurements and represent mean values from: three independent measurements with a relative standard deviation of less than 5%.

[2] = Substrate specificity to para-nitrophenyl esters: p-NP-butyrate; conditions: p-NP-butyrate 0.8 mM, phosphate buffer pH 8, room temperature, 410 nm
Experimental: (§1) For the determination of chain length specificities of the investigated esterases, p-nitrophenyl esters with different chain lengths were used as the substrate for the spectroscopic measurements of activity. To the p-nitrophenyl esters dissolved in 10 mL isopropanol were added 90 mL phosphate buffer (pH 8, disodium hydrogen phosphate and potassium dihydrogen phosphate). The final concentration of the substrate was 0.8 mM. Each 990 μL buffer-substrate mixture was mixed with 10 μL of the enzyme sample and incubated at room temperature for one minute. The increase in absorption at 410 nm was then measured (UV MC^2, SAFAS, Monaco). The enzyme activity was calculated using a molar extinction coefficient of 17100 [M^−1cm^−1], wherein 1 unit was defined as the quantity of enzyme that released 1 μmol p-nitrophenol per minute.
(§2) The data in Table 3 represent mean values from three independent measurements with a relative standard deviation of less than 10%.

[3] = Substrate specificity to para-nitrophenyl esters: p-NP-caproate; conditions: p-NP-caproate 0.8 mM, phosphate buffer pH 8, room temperature, 410 nm
Experimental: as §1, §2

[4] = Substrate specificity to para-nitrophenyl esters: p-NP-caprylate; conditions: p-NP-caprylate 0.8 mM, phosphate buffer pH 8, room temperature, 410 nm
Experimental: as §1, §2

[5] = Substrate specificity to para-nitrophenyl esters: p-NP-caprate; conditions: p-NP-caprate 0.8 mM, phosphate buffer pH 8, room temperature, 410 nm
Experimental: as §1, §2

[6] = Substrate specificity to para-nitrophenyl esters: p-NP-laurate; conditions: p-NP-laurate 0.8 mM, phosphate buffer pH 8, room temperature, 410 nm
Experimental: as §1, §2

[7] = Substrate specificity to para-nitrophenyl esters: p-NP-myristate; conditions: p-NP-myristate 0.8 mM, phosphate buffer pH 8, room temperature, 410 nm
Experimental: as §1, §2

[8] = Substrate specificity to para-nitrophenyl esters: p-NP-palmitate; conditions: p-NP-palmitate 0.8 mM, phosphate buffer pH 8, room temperature, 410 nm
Experimental: as §1, §2

[9] = Substrate specificity to para-nitrophenyl esters: p-NP-stearate; conditions: p-NP-stearate 0.8 mM, phosphate buffer pH 8, room temperature, 410 nm
Experimental: as §1, §2

[10] = Titrimetric Michaelis-Menten kinetics, hydrolysis of dimethyl phthalate; conditions: substrate DMP; for kcat: assumes added enzyme = active enzyme; for vMax: titrimetric, 30° C., pH 9
Experimental: (§3) The enzyme activities of the esterases were measured with the titration apparatus 702 SAT (METROHM Ltd., Switzerland) for various substrates of the phthalate family (FIG. 4). The phthalates were dissolved in diethyl ether with 0.5 g Triton X100. The diethyl ether was then removed under a stream of nitrogen. 50 ml buffer (2 mM Tris/HCl, pH 9) was added, homogenized by ultrasound and used in different final concentrations (0.3 mM to 100 mM) in a total reaction volume of 2 mL (including enzyme). The reaction buffer was pre-incubated at 30° C. for 10 minutes. After addition of the enzyme, the NaOH consumption (concentration determination by triple titration with oxalic acid) at a reaction temperature of 30° C. was plotted. One unit is defined as the enzyme activity that releases 1 μmol acid per minute.
(§4) Titrimetric measurements were carried out to determine the kinetic constants vmax, kM, kcat and kcat/kM of the three para-nitrobenzyl esterases pNB-Est17, pNB-Est19 and pNB-Est13 towards different phthalates and terephthalates. The enzyme activities were determined for different substrate concentrations and evaluated according to MICHAELIS-MENTEN (see FIGS. 5 to 7). The measured kM- and vmax values and the added enzyme concentrations were used to calculate the kinetic constants (kcat and k2) and the catalytic efficiency (kcat/kM)—under the assumption that the added enzyme concentration was the same as the concentration of the active enzyme.
(§5) The data in FIGS. 5 to 7 and Tables 5 to 7 represent mean values from three independent titrimetric measurements with a relative standard deviation of less than 5%. The calculation of kcat and kcat/kM was based on the assumption that the added enzyme concentration was the same as the concentration of the active enzyme.

[11] = Titrimetric Michaelis-Menten kinetics, hydrolysis of dimethyl isophthalate; conditions: substrate DMIP; for kcat: assumes added enzyme = active enzyme; for vMax: titrimetric, 30° C., pH 9
Experimental: as §3, §4, §5

[12] = Titrimetric Michaelis-Menten kinetics, hydrolysis of dimethyl terephthalate; conditions: substrate DMT; for kcat: assumes added enzyme = active enzyme; for vMax: titrimetric, 30° C., pH 9
Experimental: as §3, §4, §5

[13] = Titrimetric Michaelis-Menten kinetics, hydrolysis of diethyl phthalate; conditions: substrate DEP; for kcat: assumes added enzyme = active enzyme; for vMax: titrimetric, 30° C., pH 9
Experimental: as §3, §4, §5

[14] = Titrimetric Michaelis-Menten kinetics, hydrolysis of dibutyl phthalate; conditions: substrate DBP; for kcat: assumes added enzyme = active enzyme; for vMax: titrimetric, 30° C., pH 9
Experimental: as §3, §4, §5

[15] = Titrimetric Michaelis-Menten kinetics, hydrolysis of diethyl terephthalate; conditions: substrate DET; for kcat: assumes added enzyme = active enzyme; for vMax: titrimetric, 30° C., pH 9
Experimental: as §3, §4, §5

B1: pNB-Est17: para-nitrobenzyl esterase, enzyme according to Seq ID No. 1, from Bacillus subtilis (17A1), 489 amino acids (protein, listed as Bacillus subtilis)
chain: MTHQIVTTQYGKVKGTTENGVHKWKGIPYAKPPVGQWRFKAPEPPEVWEDVLDATAYGPICPQPSDLLSLSYTELPRQSEDCLYVNVFAPDTPSQNLPVMVWIHGGAFYLGAGSEPLYDGSKLAAQGEVIVVTLNYRLGPFGFLHLSSFDEAYSDNLGLLDQAAALKWVRENISAFGGDPDNVTVFGESAGGMSIAALLAMPAAKGLFQKAIMESGASRTMTKEQAASTSAAFLQVLGINEGQLDKLHTVSAEDLLKAADQLRIAEKENIFQLFFQPALDPKTLPAEPEKAISEGAASGIPLLIGTTRDEGYLFFTPDSDVHSQETLDAALEYLLGKPLAEKAADLYPRSLESQIHMMTDLLFWRPAVAYASAQSHYAPVWMYRFDWHPKKPPYNKAFHALELPFVFGNLDGLERMAKAEITDEVKQLSHTIQSAWITFAKTGNPSTEAVNWPTYHEETRETLILDSEITIENDPESEKRQKLFPSKGE
kcat [1]: 5177 s⁻¹
Specific Activity [1]: 1.60 µmol/min/mg
vMax [1]: 0.642 µmol/min
Specific Activity [2]: 196.3 U/mg
Specific Activity [3]: 102.7 U/mg
Specific Activity [4]: 73.2 U/mg
Specific Activity [5]: 10.2 U/mg
Specific Activity [6]: 3.4 U/mg
Specific Activity [7]: <1 U/mg
Specific Activity [8]: <1 U/mg
Specific Activity [9]: <1 U/mg
kcat [10]: 45672 s⁻¹
vMax [10]: 14.09 U/mg
kcat [11]: 38880 s⁻¹
vMax [11]: 11.99 U/mg
kcat [12]: 60028 s⁻¹
vMax [12]: 18.52 U/mg
kcat [13]: 31065 s⁻¹
vMax [13]: 9.57 U/mg
kcat [14]: 155676 s⁻¹
vMax [14]: 48.03 U/mg
kcat [15]: 90998 s⁻¹
vMax [15]: 28.06 U/mg

B2: pNB-Est19: para-nitrobenzyl esterase, enzyme according to Seq ID No. 2, from Bacillus licheniformis (19C5), 489 amino acids (protein, listed as Bacillus licheniformis)
chain: B1 chain
kcat [1]: 3838 s⁻¹
Specific Activity [1]: 1.19 µmol/min/mg
vMax [1]: 0.385 µmol/min
Specific Activity [2]: 234.8 U/mg
Specific Activity [3]: 249.6 U/mg
Specific Activity [4]: 83.6 U/mg
Specific Activity [5]: 3.9 U/mg
Specific Activity [6]: 4.0 U/mg
Specific Activity [7]: 1.3 U/mg
Specific Activity [8]: <1 U/mg
Specific Activity [9]: <1 U/mg
kcat [10]: 50970 s⁻¹
vMax [10]: 15.76 U/mg
kcat [11]: 27637 s⁻¹
vMax [11]: 8.55 U/mg
kcat [12]: 50718 s⁻¹
vMax [12]: 15.69 U/mg
kcat [13]: 23265 s⁻¹
vMax [13]: 7.20 U/mg
vMax [14]: 40.69 U/mg
kcat [15]: 99411 s⁻¹
vMax [15]: 30.79 U/mg

B3: pNB-Est13: para-nitrobenzyl esterase, enzyme according to Seq ID No. 12, Bacillus licheniformis DSM13 (gi 52346943) (protein, listed as Bacillus licheniformis)
chain: MYDTTVETRFGKLKGRAENGVRIFKGVPYAKPPVGDLRFREPQRMEAWEGELDAFQFGPVCPQPDGVLPESAGVQKSEDCLYLNVYAPEEADGDLPVMVWIHGGAFYRGAGSEPLYDGTQLAKQGKVIVVTINYRLGPFGFLHLSSIDDSYSSNLGLLDQIAALEWVKDNIAFFGGDRHHITVFGESAGSMSIASLLAMPKAKGLFQQAIMESGASATMSDKLAKAAAERFLRILDIDHHHLERLHDVSDQELLEAADQLRTLMGENIFELIFLPALDEKTLPLKPEVAVAKGAAKEINLLIGTNRDEGVLFFPSDSDLLPESKINEILEEYMGKEAAEAASSLYPRSLEGHVDMMTDLIFWHPSVVFASAQSRYASVFMYRFDWHADSEQPPFNKAAHGLEIPFVFGNMDILEQLTGTKAGEEAQLLAEQIQAAWVSFARSGNPSTDDVSWPDYDEDSRKTLIFDQEVAVESDPYSDKRKMLTAPNPQI
kcat [1]: 9358 s⁻¹
Specific Activity [1]: 2.87 µmol/min/mg
vMax [1]: 1.801 µmol/min
Specific Activity [2]: 22.4 U/mg
Specific Activity [3]: 50.5 U/mg
Specific Activity [4]: 13.0 U/mg
Specific Activity [5]: 4.4 U/mg
Specific Activity [6]: 1.3 U/mg
Specific Activity [7]: <1 U/mg
Specific Activity [8]: <1 U/mg
Specific Activity [9]: <1 U/mg
kcat [10]: 29735 s⁻¹
vMax [10]: 9.11 U/mg
kcat [11]: 90267 s⁻¹
vMax [11]: 27.67 U/mg
kcat [12]: 14784 s⁻¹
vMax [12]: 4.53 U/mg
kcat [13]: 10468 s⁻¹
vMax [13]: 3.21 U/mg
kcat [14]: 9356 s⁻¹
vMax [14]: 2.87 U/mg
kcat [15]: 12574 s⁻¹
vMax [15]: 3.57 U/mg
